Measurements taken from patent US20130045200A1.

Target: rat PD-L1 (rat) (UniProt D4AE25)
Experiment: flow cytometry (FACS); rat cells or protein not described

YW243.55.S70 (IgG) (antibody)
EC50: 800 pM
